Data: US20250361297A1 (ADAPTAM THERAPEUTICS S L, published 2025)
Changes are numbered by the printed parent chain. Numbers in names are those of the source.

B1: BsAb-2 (bispecific antibody, human IgG1, kappa, L234A L235A)
light 1: not shown
heavy 1: QVQLQQSGPELVKPGASVKISCKASGYAFSSSWMNWVKQRPGKGLEWIGRIYPGHGETNYNGKFKDKATVTADKSSSTTYMQLSSLTSEDSAVYFCARVDNSDPYYFDYWGQGTTLTVSSASTKGPSVFPLAPSSKSTSGGTAALGCLVKDYFPEPVTVSWNSGALTSGVHTFPAVLQSSGLYSLSSVVTVPSSSLGTQTYICNVNHKPSNTKVDKKVEPKSCDKTHTCPPCPAPEAAGGPSVFLFPPKPKDTLMISRTPEVTCVVVDVSHEDPEVKFNWYVDGVEVHNAKTKPREEQYNSTYRVVSVLTVLHQDWLNGKEYKCKVSNKALPAPIEKTISKAKGQPREPQVCTLPPSRDELTKNQVSLSCAVKGFYPSDIAVEWESNGQPENNYKTTPPVLDSDGSFFLVSKLTVDKSRWQQGNVFSCSVMHEALHNHYTQKSLSLSPGK
heavy 2: not shown
light 2: not shown
notes: 2 + 1 format; also called anti-Siglec-15/CD3 bispecific antibody, Format-2: KIH & scFv (2 + 1)
B2: A2A5C7E8-3 (antibody, V domains shown)
VH: EVQLVQSGAEVKKPGESLRISCKGSGYSFTTYWISWVRQMPGKGLEWMGLIDPSDSYTNYSPSFKGHVTISTDKSISTAYLQWSSLKASDTAMYYCARGGYYGSEEDYWGQGTLVTVSS
VL: EIVLTQSPGTLSLSPGERATLSCRASQSVSSSRLAWFQQKSGQAPRLLIFDASSRATGIPDRFSGSGSGTDFTLTISRLEPEDFAVYYCQQYGSSPRTFGQGTKVEFKR
B3: 5G12 (antibody, V domains shown)
VH: QVQLQQPGAELVKPGASVKMSCKASGYTFTSYWITWVIQRPGQGLEWIGDIYCGSDTMHYNEKFKNKATLTVDTSSSTAYMQLSSLTSEDSAVYYCARWWDYGSSYDYFDYWGQGTTLTVSS
VL: DIKMTQSPSSMYASLGERVTITCKASQDINSYLSWFQQKPGKSPKTLIYRANRLVDGVPSRFSGSGSGQDYSLTISSLEYEDMGIYYCLQYDEFPYTFGGGTKLEIKR
B4: ZLA-1212-E09 (antibody, V domains shown)
VH: QVQLVQSGGGVVQPGRSLRLSCAASGFTFSSYGMHWVRQAPGKGLEWVAVISYDGSNKYYADSVKGRFTISRDNSKNTLYLQMNSLRAEDTAVYYCAKDDSGYYDSSGYDYWGQGTLVTVSS
VL: QSVLTQPPSVSGAPGQRVTISCTGSSSNIGAGYDVHWYQQLPGTAPKLLIYGNSNRPSGVPDRFSGSKSGTSASLAITGLQAEDEADYYCQSYDSSLSGVVFGGGTKLTVL
notes: also called clone ZLA-1212-E09
B5: S15B1-VH3 + VL2 (antibody, V domains shown)
VH: QVQLVQSGAEVKKPGASVKVSCKASGYAFSSSWMNWVKQAPGQGLEWIGRIYPGHGETNYNGKFKDRATMTADTSTSTVYMELSSLRSEDTAVYFCARVDNSDPYYFDYWGQGTTVTVSS
VL: DIVLTQSPASLAVSPGQRATITCRASKSVSTSGYSYMHWYQQKPGQPPKLLIYLASNLESGVPARFSGSGSGTDFTLTINPVEAEDTATYYCQHGRELPFTFGGGTKLEIK
notes: Humanized S15B1; also called humanized S15B1 VH3+VL2; huS15B1
B6: S15B1-VH1 + VL1 (antibody, V domains shown)
VH: B5 VH with K38R, A68V
VL: B5 VL with T89N
notes: Humanized S15B1; also called humanized S15B1 VH1+VL1; huS15B1
B7: S15B1-VH2 + VL1 (antibody, V domains shown)
VH: B5 VH with K38R, A68V
VL: B5 VL with T89N
notes: Humanized S15B1; also called humanized S15B1 VH2+VL1; huS15B1
B8: S15B1-VH1 + VL2 (antibody, V domains shown)
VH: B5 VH with K38R, A68V
VL: B5 VL
notes: Humanized S15B1; also called humanized S15B1 VH1+VL2; huS15B1
B9: S15B1-VH4 + VL1 (antibody, V domains shown)
VH: B5 VH with T74K
VL: B5 VL with T89N
notes: Humanized S15B1; also called humanized S15B1 VH4+VL1; huS15B1
B10: S15B1-VH2 + VL2 (antibody, V domains shown)
VH: B5 VH with K38R, A68V
VL: B5 VL
notes: Humanized S15B1; also called humanized S15B1 VH2+VL2; huS15B1
B11: S15B1-VH3 + VL1 (antibody, V domains shown)
VH: B5 VH
VL: B5 VL with T89N
notes: Humanized S15B1; also called humanized S15B1 VH3+VL1; huS15B1
B12: S15B1-VH4 + VL2 (antibody, V domains shown)
VH: B5 VH with T74K
VL: B5 VL
notes: Humanized S15B1; also called humanized S15B1 VH4+VL2; huS15B1
B13: ZLA-1243-A01 (antibody, V domains shown)
VH: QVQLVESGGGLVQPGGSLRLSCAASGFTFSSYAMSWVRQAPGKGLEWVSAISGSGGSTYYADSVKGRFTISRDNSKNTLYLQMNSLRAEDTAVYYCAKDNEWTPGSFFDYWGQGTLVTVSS
VL: QSALTQPASVSGSPGQSITISCTGTSSDVGGYNYVSWYQQHPGKAPKLMIYDVSNRPSGVSNRFSGSKSGNTASLTISGLQAEDEADYYCSSYTSSSTRVFGGGTKVTVL
notes: Fully human, from phage display; tested as full-length human IgG1 with silenced Fc (E233P, L234V, L235A, G236 deletion, D265G, A327Q, A330S, C-terminus lysine deletion)
B14: ZLA-1214-D08 (antibody, V domains shown)
VH: EVQLVQSGAEVKKPGASVKVSCKASGYTFTGYYMHWVRQAPGQGLEWMGRINPNSGGTNYAQKFQGRVTMTRDTSTSTAYMELSRLRSDDTAVYYCARVINDAFDMWGQGTMVTVSS
VL: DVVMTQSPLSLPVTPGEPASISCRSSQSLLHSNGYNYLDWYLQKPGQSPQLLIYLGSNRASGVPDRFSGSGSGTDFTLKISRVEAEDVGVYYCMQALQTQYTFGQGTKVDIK
notes: Fully human, from phage display
B15: ZLA-1243-E01 (antibody, V domains shown)
VH: QVQLVQSGGGLVQPGRSLRLSCAASGFTFDDYAMHWVRQAPGKGLEWVSGISWNSGSIGYADSVKGRFTISRDNAKNSLYLQMNSLRAEDTALYYCAKGLWPSYDLDAFDIWGQGTMVTVSS
VL: QSALTQPASVSGSPGQSITLSCTGTSSDVGAYNFVSWYQQHPGTAPKLMIYEVSNRPSGVSDRFSGSKSGNTASLTISGLQAEDEADYYCSSYTSTIPPFVFGTGTKVTVL
notes: as for B14
B16: ZLA-1212-B05 (antibody, V domains shown)
VH: QVQLVQSGGGVVQPGRSLRLSCAASGFTFSSYAMHWVRQAPGKGLEWVAVISYDGSNKYYADSVKGRFTISRDNSKNTLYLQMNSLRAEDTAVYYCAREGGSYYGYFDYWGQGTLVTVSS
VL: QSVLTQPPSVSVAPGKTARITCGGNNIGSKSVHWYQQKPGQAPVLVIYDDSDRPSGIPERFSGSNSGNTATLTISRVEAGDEADYYCQVWDSSSDHRVFGGGTKLTVL
notes: Fully human, from phage display; also called clone ZLA-1212-B05
B17: ZLA-1214-B07 (antibody, V domains shown)
VH: QVQLVQSGAEVKKPGSSVKVSCKASGGTFSSYAISWVRQAPGQGLEWMGGIIPIFGTANYAQKFQGRVTITADESTSTAYMELSSLRSEDTAVYYCARDGGRDGYNPKKILEFDYWGQGTLVTVSS
VL: not shown
notes: as for B14

Key:
[1] = molecular target: T1, recombinant Siglec-15 (bispecific antibody affinity assay) (Homo sapiens (Human), UniProt Q6ZMC9 20-263, limits assumed); assay: antibody as ligand, human Siglec15 as analyte; legend paragraph 114 says BLI, methods paragraph 422 say Biacore SPR, table in RU
T1 sequence: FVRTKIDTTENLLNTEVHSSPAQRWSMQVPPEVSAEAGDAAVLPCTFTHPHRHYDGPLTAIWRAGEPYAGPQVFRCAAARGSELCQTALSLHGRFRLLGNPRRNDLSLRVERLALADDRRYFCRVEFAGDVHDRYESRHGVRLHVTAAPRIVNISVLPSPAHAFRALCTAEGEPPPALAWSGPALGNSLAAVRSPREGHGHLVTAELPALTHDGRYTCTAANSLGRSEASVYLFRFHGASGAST

recombinant CD3 = recombinant CD3 (UniProt P07766 23-126; P09693 23-116); assay: antibody as ligand, 'Human CD3 epsilon&CD3 gamma' as analyte; legend paragraph 116 says BLI, methods paragraph 422 say Biacore SPR, table in RU
Chain of recombinant CD3 (P07766 23-126, form in doubt, chain 1 of 2): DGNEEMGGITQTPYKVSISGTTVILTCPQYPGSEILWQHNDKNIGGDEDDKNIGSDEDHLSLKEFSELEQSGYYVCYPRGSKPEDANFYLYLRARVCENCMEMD
Chain of recombinant CD3 (P09693 23-116, form in doubt, chain 2 of 2): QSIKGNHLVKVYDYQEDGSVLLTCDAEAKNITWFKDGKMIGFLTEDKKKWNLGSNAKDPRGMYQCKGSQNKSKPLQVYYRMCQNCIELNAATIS

[2] = molecular target: T2, human Siglec-15, full length, expressed on cells (human, UniProt Q6ZMC9 20-328); assay: flow cytometry, HEK293T cells expressing human Siglec-15, anti-human IgG-PE, gMFI
T2 construct: also called hS15; MOLM-13 Siglec-15 expressing cells
T2 sequence: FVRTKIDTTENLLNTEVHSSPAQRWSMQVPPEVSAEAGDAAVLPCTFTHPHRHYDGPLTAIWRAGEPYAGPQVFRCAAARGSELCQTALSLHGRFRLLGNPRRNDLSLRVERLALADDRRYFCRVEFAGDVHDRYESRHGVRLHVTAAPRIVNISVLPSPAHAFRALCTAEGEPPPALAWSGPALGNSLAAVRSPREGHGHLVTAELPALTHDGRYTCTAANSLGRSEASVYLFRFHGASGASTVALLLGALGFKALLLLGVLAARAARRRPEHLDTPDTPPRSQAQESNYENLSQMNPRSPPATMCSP

[3] = molecular target: T3, mouse Siglec-15, full length, expressed on HEK293T cells (mouse); assay: IgG1 titration, flow cytometry on HEK293T cells expressing mouse Siglec-15
T3 construct: also called mS15; HEK293T cells expressing mouse Siglec-15
T3 chain: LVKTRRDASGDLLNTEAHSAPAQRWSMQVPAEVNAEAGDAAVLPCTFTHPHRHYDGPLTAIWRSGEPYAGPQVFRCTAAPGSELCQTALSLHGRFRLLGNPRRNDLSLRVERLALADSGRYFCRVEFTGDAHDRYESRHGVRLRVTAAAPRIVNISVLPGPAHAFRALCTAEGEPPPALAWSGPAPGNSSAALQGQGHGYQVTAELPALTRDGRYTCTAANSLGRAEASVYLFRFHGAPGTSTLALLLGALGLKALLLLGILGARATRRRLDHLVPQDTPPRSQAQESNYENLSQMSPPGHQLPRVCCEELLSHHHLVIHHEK

[4] = molecular target: T2, human Siglec-15, full length, expressed …; assay: IgG1 titration, flow cytometry on MOLM-13 human Siglec-15 cells
[5] = molecular target: T4, truncated human Siglec-15 comprising only domain 2 (D2), expressed on HEK293T cells (human, UniProt Q6ZMC9 168-251, limits assumed); assay: flow cytometry, HEK293T cells expressing only domain 2 of human Siglec-15, fold change of Siglec15 gMFI relative to 2ry control
T4 construct: also called domain 2-only human Siglec-15; Siglec-15 Domain 2 (D2) HEK293T cells
T4 sequence: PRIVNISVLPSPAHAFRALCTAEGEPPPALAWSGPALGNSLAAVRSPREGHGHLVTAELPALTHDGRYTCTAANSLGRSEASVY

[6] = molecular target: T5, recombinant human Siglec-15-his protein (Bonopusbio) (human, UniProt Q6ZMC9 20-263); assay: SPR (Biacore T200), antibody on CM5 chip, Siglec-15-his as analyte
T5 construct: Bought (CW37-50 ug in the ELISA; the SPR paragraph prints CW70-50 ug); whole entry named; also called recombinant human Siglec-15 protein
T5 sequence: T1 sequence

[7] = molecular target: T2, human Siglec-15, full length, expressed …; assay: flow cytometry, HEK293T cells expressing human Siglec-15, anti-human IgG-PE, MFI

| Binder | EC50 [3] [µg/mL] | EC50 [4] [µg/mL] | binding result [5] | Kd [6] [pM] | koff [6] [s⁻¹] | kon [6] [M⁻¹ s⁻¹] | other results |
| --- | --- | --- | --- | --- | --- | --- | --- |
| B1 | – | – | – | – | – | – | Kd [1]: 170 pM; koff [1]: 0.000133 s⁻¹; kon [1]: 786000 M⁻¹ s⁻¹; Kd (recombinant CD3): 137000 pM; koff (recombinant CD3): 0.00739 s⁻¹; kon (recombinant CD3): 53800 M⁻¹ s⁻¹ |
| B2 | – | – | – | – | – | – | EC50 (read off the curve) [2]: ~500 pM |
| B3 | – | – | – | – | – | – | EC50 (read off the curve) [2]: ~1000 pM |
| B4 | 0.191 | 0.178 | no binding | – | – | – | – |
| B5 | – | – | – | 65.3 | 0.000293 | 4.49e+06 | EC50 (read off the curve) [7]: ~1000 pM |
| B6 | – | – | – | 136 | 0.000455 | 3.35e+06 | – |
| B7 | – | – | – | 125 | 0.000473 | 3.8e+06 | – |
| B8 | – | – | – | 159 | 0.000563 | 3.54e+06 | – |
| B9 | – | – | – | 93.8 | 0.000385 | 4.1e+06 | – |
| B10 | – | – | – | 94.6 | 0.000326 | 3.44e+06 | EC50 (read off the curve) [7]: ~1000 pM |
| B11 | – | – | – | 69 | 0.000257 | 3.73e+06 | EC50 (read off the curve) [7]: ~1000 pM |
| B12 | – | – | – | 138 | 0.000234 | 1.69e+06 | – |
| B13 | 0.0753 | 0.181 | no binding | – | – | – | EC50 (read off the curve) [2]: ~1000 pM |
| B14 | 0.103 | 0.106 | no binding | – | – | – | – |
| B15 | 0.0849 | 0.174 | no binding | – | – | – | – |
| B16 | 0.168 | 0.215 | no binding | – | – | – | – |
| B17 | 0.102 | 0.133 | no binding | – | – | – | – |
